B1: REGN10987 (antibody, V domains shown)
VH: QVQLVESGGGVVQPGRSLRLSCAASGFTFSNYAMYWVRQAPGKGLEWVAVISYDGSNKYYADSVKGRFTISRDNSKNTLYLQMNSLRTEDTAVYYCASGSDYGDYLLVYWGQGTLVTVSS
VL: QSALTQPASVSGSPGQSITISCTGTSSDVGGYNYVSWYQQHPGKAPKLMIYDVSKRPSGVSNRFSGSKSGNTASLTISGLQSEDEADYYCNSLTSISTWVFGGGTKLTVL
B2: REGN14315 (antibody, V domains shown)
VH: QVQLVQSGAEVKKPGSSVKVSCKASGDTFSTYAINWVRQAPGQGLEWMGRFIHIFGTANYAQKFQGRVTITADESTSTAYMELRSLRSEDTAVYYCARDGVDYGDYRPDYWGQGTLVTVSS
VL: EIVLTQSPGTLSLSPGERATLSCRASQSVSSNYLAWYQQKPGQAPRLLIYGASSRATGIPERFSGSGSGTDFTLTISRLEPEDFAVYYCQQYGSSLYTFGQGTKLEIK
B3: REGN14315 + REGN10987 (other)
VH 1: B2 VH
VL 1: B2 VL
VH 2: B1 VH
VL 2: B1 VL
B4: REGN10933 + REGN10987 (other)
VH 1: QVQLVESGGGLVKPGGSLRLSCAASGFTFSDYYMSWIRQAPGKGLEWVSYITYSGSTIYYADSVKGRFTISRDNAKSSLYLQMNSLRAEDTAVYYCARDRGTTMVPFDYWGQGTLVTVSS
VL 1: DIQMTQSPSSLSASVGDRVTITCQASQDITNYLNWYQQKPGKAPKLLIYAASNLETGVPSRFSGSGSGTDFTFTISGLQPEDIATYYCQQYDNLPLTFGGGTKVEIK
VH 2: B1 VH
VL 2: B1 VL
B5: REGN10933 (antibody, V domains shown)
VH: B4 VH 1
VL: B4 VL 1
B6: REGN14287 + REGN14315 (other)
VH 1: QVQLVQSGAEVKKPGSSVKVSCKASGGTFSNNAISWVRQAPGQGLEWMGKIIPILGIGGDAQKFQGRFTITADKSTSTAYMELSSLRSEDTAVYYCANSGDSRPHAFDIWGQGTMVTVSS
VL 1: QSALTQPASVSGSPGQSITISCTGTSSDVGSYNLVSWYQQHPGKAPKLMIYEVSKRPSGVSNRFSGSKSGNTASLTISGLQAEDEADYYCSSYAGSRREVFGGGTKLTVL
VH 2: B2 VH
VL 2: B2 VL
B7: REGN14287 (antibody, V domains shown)
VH: B6 VH 1
VL: B6 VL 1
B8: REGN14256 (antibody, V domains shown)
VH: QVQLQESGPGLVKPSETLSLTCTVSGGSISSHYWSWIRQPPGKGLEWIGYIYYSGSSNYNPSLKSRVTISVDTSKNQFSLKLNSVTAADTAVYYCARHYDILTGFDWFDPWGQGTLVTVSS
VL: QSVLTQPPSVSGAPGQRVTISCTGSSSNIGTHYDVHWYQQLPGTAPKLLIYGNSNRPSGVPDRFSGSKSGTSASLAITGLQAEDEADYYCQSFDNSLTAPYVFGTGTKVTVL

The binders below were run against SARS-COV-2 Spike, Omicron variant BA.2.12.1 (SARS-COV-2, UniProt P0DTC2 14-1273) (assay: cell-based or functional assay).

Binder | Fold change over R10987 against D614G | pseudovirus neutralization IC50
B1 | 279 fold | 1.48 nM
B2 | 12.7 fold | 0.0673 nM
B3 | 21 fold | 0.111 nM

Each binder was assayed against T1, SARS-COV-2 Spike, D614G (SARS-COV-2, UniProt P0DTC2 14-1273) (assay: cell-based or functional assay).

Binder | Fold change over R10987 against D614G | pseudovirus neutralization IC50
B2 | 0.22 fold | 0.00115 nM
B3 | 0.7 fold | 0.00368 nM

What follows are binders tested against T2, SARS-COV-2 Spike, Omicron variant BA.2 (SARS-COV-2, UniProt P0DTC2 14-1273) (assay: cell-based or functional assay).

Binder | Fold change over R10987 against D614G | pseudovirus neutralization IC50
B1 | 199 fold | 1.06 nM
B2 | 6.78 fold | 0.0359 nM
B3 | 13.2 fold | 0.0699 nM

Each binder was assayed against T3, SARS-COV-2 Spike, Omicron variant BA.1 (SARS-COV-2, UniProt P0DTC2 14-1273) (assay: cell-based or functional assay).

Binder | Fold change over R10987 against D614G | pseudovirus neutralization IC50
B2 | 1.03 fold | 0.00547 nM
B3 | 3.18 fold | 0.0169 nM

Each binder was assayed against T4, SARS-COV-2 Spike, Omicron variant BA.4/BA.5 (SARS-COV-2, UniProt P0DTC2 14-1273) (assay: cell-based or functional assay).

Binder | Fold change over R10987 against D614G | pseudovirus neutralization IC50
B1 | 176 fold | 0.933 nM
B2 | 9.38 fold | 0.0497 nM
B3 | 20.7 fold | 0.11 nM

Target: T1, SARS-COV-2 Spike, D614G
Test: cell-based or functional assay
Remark: another data set of the same source

Binder | Fold Change over R10933 + R10987 against D614G | pseudovirus neutralization IC50
B4 | 1 fold | 0.0147 nM
B5 | 1.98 fold | 0.0291 nM
B1 | 0.89 fold | 0.0131 nM
B2 | 0.6 fold | 0.00878 nM
B6 | 0.76 fold | 0.0111 nM
B7 | 6.18 fold | 0.0906 nM
B8 | 0.77 fold | 0.0114 nM

Target: T2, SARS-COV-2 Spike, Omicron variant BA.2
Test: cell-based or functional assay
Remark: another data set of the same source

Binder | Fold Change over R10933 + R10987 against D614G | pseudovirus neutralization IC50
B4 | 326 fold | 4.77 nM
B1 | 149 fold | 2.18 nM
B2 | 11.5 fold | 0.168 nM
B6 | 9.75 fold | 0.143 nM
B7 | 1.94 fold | 0.0284 nM

What follows are binders tested against SARS-COV-2 Spike, Omicron variant BA.2.75 (SARS-COV-2, UniProt P0DTC2 14-1273) (assay: cell-based or functional assay).

Binder | Fold Change over R10933 + R10987 against D614G | pseudovirus neutralization IC50
B5 | 148 fold | 2.17 nM
B2 | 87 fold | 1.28 nM
B6 | 20.5 fold | 0.3 nM
B7 | 3.94 fold | 0.0578 nM

Target: T3, SARS-COV-2 Spike, Omicron variant BA.1
Test: cell-based or functional assay
Remark: another data set of the same source

Binder | Fold Change over R10933 + R10987 against D614G | pseudovirus neutralization IC50
B2 | 2.76 fold | 0.0404 nM
B6 | 6.11 fold | 0.0896 nM
B7 | 3.28 fold | 0.0481 nM

Target: T4, SARS-COV-2 Spike, Omicron variant …
Test: cell-based or functional assay
Remark: another data set of the same source

Binder | Fold Change over R10933 + R10987 against D614G | pseudovirus neutralization IC50
B4 | 230 fold | 3.37 nM
B1 | 236 fold | 3.46 nM
B2 | 10.8 fold | 0.159 nM
B6 | 14.9 fold | 0.219 nM
B7 | 3.41 fold | 0.05 nM

Target: T1, SARS-COV-2 Spike, D614G
Test: cell-based or functional assay
Remark: another data set of the same source

Binder | pseudovirus neutralization IC50
B4 | 0.012 nM
